This is an account of results in article PMC7057950 (Nature Communications, 2020).

The chains are these.
B1: human Hsp90β K607A (natural protein)
chain: not shown
notes: Hsp90β, human; pET28 vector, site-directed mutagenesis; source: E. coli BL21 (DE3) cod+, purified (HisTrap, Resource Q, Superdex 200)
B2: human Hsp90β K607I (natural protein)
chain: not shown
notes: as for B1
B3: human Hsp90β K607E (natural protein)
chain: not shown
notes: as for B1
B4: human Hsp90β K607R (natural protein)
chain: not shown
notes: as for B1

This data set concerns the molecule itself. In words: SEC; Hsp90 dimerization assay: dilution series on Superdex 200 increase 10/300 GL (Shimadzu HPLC), fluorescence detection, 25 °C, 40 mM Hepes pH 7.5, 150 mM KCl, 5 mM MgCl2, 2 mM DTT; human Hsp90β 2 nM to 4 µM, yeast Hsp90 16 nM to 2 µM; KD = KD(app) divided by the dilution factor (about 4); dimer to monomers. For orientation: Size exclusion chromatography separates by hydrodynamic size, large species first.
With B1, the binding result is on record as “binds”.
B2: the binding result is listed as “binds”.
For B3, the binding result is listed as “binds”.
In the case of B4, the binding result was “binds”.
